Values joined by “and” are separate entries in the source; they are usually repeats but may differ in a detail not shown here. Identical values can stand only once. Values belong to the binder of their own block, whether it stands above or below them.
Legend:
human NPRA [1] = molecular target: T1, human NPRA (human, UniProt P16066 33-1061); assay: cell-based or functional assay
T1 sequence (looked up): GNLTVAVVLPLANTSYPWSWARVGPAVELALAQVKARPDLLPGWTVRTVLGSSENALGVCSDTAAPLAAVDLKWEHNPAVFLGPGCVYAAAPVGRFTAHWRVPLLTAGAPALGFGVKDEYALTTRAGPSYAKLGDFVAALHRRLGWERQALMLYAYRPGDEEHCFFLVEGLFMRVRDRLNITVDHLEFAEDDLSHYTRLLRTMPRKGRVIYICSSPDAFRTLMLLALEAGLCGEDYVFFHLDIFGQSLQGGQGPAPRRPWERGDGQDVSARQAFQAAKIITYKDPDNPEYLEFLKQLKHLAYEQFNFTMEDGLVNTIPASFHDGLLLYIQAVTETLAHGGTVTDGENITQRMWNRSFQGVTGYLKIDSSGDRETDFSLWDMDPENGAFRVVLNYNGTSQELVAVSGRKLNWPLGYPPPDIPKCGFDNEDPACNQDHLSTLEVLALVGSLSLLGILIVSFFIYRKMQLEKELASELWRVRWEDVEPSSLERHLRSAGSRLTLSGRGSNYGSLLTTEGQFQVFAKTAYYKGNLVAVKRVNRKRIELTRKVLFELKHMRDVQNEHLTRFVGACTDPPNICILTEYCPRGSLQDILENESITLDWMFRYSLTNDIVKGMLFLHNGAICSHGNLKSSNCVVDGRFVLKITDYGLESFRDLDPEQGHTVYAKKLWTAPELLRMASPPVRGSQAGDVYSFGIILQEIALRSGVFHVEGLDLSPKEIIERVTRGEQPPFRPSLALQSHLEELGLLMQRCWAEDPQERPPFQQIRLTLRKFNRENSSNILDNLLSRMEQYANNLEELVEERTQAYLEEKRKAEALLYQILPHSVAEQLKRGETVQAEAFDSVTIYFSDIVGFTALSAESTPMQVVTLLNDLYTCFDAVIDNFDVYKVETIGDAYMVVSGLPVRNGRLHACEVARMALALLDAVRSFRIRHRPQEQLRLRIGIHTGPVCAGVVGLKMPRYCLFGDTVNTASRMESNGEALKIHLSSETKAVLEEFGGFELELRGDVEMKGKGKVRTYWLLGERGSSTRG

human NPRA [2] = molecular target: T2, human NPRA (human, UniProt P16066 33-1061); assay: cell-based or functional assay; remark: listed apart in the source
T2 sequence (looked up): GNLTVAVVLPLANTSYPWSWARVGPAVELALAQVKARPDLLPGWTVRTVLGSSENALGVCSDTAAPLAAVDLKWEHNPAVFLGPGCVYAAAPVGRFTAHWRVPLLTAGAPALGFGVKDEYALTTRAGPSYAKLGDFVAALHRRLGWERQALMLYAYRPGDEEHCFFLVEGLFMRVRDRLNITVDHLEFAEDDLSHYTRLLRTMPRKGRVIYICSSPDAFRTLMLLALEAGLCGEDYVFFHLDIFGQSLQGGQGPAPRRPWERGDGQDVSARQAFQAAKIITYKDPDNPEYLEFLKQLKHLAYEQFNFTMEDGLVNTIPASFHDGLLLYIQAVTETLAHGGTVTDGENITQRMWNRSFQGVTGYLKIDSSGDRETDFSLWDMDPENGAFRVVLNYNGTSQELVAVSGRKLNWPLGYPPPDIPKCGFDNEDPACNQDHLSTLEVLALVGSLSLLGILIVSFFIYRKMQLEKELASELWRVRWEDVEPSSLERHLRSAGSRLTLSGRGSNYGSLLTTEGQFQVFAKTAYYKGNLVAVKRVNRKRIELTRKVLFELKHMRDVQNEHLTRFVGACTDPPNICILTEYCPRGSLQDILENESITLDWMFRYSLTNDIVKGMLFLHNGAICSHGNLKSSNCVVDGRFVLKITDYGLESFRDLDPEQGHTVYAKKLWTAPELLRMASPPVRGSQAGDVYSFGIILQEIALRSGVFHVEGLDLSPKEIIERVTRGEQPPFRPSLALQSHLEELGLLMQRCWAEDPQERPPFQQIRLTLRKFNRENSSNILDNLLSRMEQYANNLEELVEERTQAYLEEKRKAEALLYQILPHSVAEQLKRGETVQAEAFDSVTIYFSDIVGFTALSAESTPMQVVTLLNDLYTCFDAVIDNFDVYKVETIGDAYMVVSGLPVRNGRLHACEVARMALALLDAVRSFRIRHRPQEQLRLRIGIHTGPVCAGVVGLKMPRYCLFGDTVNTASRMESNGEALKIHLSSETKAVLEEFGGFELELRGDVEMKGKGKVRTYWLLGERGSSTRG

B4: TPP-10274 (antibody)
heavy: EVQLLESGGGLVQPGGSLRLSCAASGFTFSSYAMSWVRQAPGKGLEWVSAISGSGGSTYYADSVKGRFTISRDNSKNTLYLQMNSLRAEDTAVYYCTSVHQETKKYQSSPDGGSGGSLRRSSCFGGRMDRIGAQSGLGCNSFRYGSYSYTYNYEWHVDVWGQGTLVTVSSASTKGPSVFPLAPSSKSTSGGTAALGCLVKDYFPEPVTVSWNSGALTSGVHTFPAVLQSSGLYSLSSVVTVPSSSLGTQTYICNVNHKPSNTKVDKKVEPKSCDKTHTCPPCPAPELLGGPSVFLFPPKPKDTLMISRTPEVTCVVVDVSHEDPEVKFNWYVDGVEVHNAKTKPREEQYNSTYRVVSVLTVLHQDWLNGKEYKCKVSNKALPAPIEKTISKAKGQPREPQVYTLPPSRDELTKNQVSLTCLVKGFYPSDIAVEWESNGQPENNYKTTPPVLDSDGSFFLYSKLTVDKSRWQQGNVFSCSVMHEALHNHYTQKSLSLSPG
light: QSVLTQPPSVSGAPGQRVTISCTGSSSNIGAGYDVHWYQQLPGTAPKLLIYGNSNRPSGVPDRFSGSKSGTSASLAITGLQAEDEADYYCQSYDSSLSGVVFGGGTKLTVLGQPKAAPSVTLFPPSSEELQANKATLVCLISDFYPGAVTVAWKADSSPVKAGVETTTPSKQSNNKYAASSYLSLTPEQWKSHRSYSCQVTHEGSTVEKTVAPTECS
activity rcs (cGMP, hNPRA-CHO k1) (human NPRA [2]): 71%
average rel logEC50 (vs TPP-5661) (human NPRA [2]): -0.1
rel. logEC50 pcs 2 (vs TPP-5661, hNPRA-CHO k1) (human NPRA [2]): -0.3
rel. logEC50 pcs 3 (vs TPP-5661, hNPRA-CHO k1) (human NPRA [2]): -0.2
rel. logEC50 pcs 7 (vs TPP-5661, hNPRA-CHO k1) (human NPRA [2]): 0

B5: TPP-10282 (antibody, human IgG1, lambda)
heavy: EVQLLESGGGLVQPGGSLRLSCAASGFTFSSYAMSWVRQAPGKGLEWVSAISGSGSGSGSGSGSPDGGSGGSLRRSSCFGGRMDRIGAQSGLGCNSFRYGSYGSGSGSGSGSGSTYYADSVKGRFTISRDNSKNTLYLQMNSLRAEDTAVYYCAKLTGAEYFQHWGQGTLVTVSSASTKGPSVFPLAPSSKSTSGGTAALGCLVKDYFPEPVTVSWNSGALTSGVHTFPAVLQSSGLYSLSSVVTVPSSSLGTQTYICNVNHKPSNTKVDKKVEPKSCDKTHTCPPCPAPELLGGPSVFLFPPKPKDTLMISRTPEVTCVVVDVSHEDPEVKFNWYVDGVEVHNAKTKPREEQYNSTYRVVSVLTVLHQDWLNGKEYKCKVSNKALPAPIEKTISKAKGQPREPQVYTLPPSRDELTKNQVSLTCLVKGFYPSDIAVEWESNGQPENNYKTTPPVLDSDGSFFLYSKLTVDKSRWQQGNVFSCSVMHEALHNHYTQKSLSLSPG
light: QSVLTQPPSVSGAPGQRVTISCTGSSSNIGAGYDVHWYQQLPGTAPKLLIYGNSNRPSGVPDRFSGSKSGTSASLAITGLQAEDEADYYCQSYDSSLSGVVFGGGTKLTVLGQPKAAPSVTLFPPSSEELQANKATLVCLISDFYPGAVTVAWKADSSPVKAGVETTTPSKQSNNKYAASSYLSLTPEQWKSHRSYSCQVTHEGSTVEKTVAPTECS
activity rcs (cGMP, hNPRA-CHO k1) (human NPRA [2]): 30%
average rel logEC50 (vs TPP-5661) (human NPRA [2]): 0.1
rel. activity rcs (delta logEC50 vs TPP-5661, hNPRA-CHO k1) (human NPRA [2]): 0.3
rel. logEC50 pcs 1 (vs TPP-5661, hNPRA-CHO k1) (human NPRA [2]): 0.3
rel. logEC50 pcs 2 (vs TPP-5661, hNPRA-CHO k1) (human NPRA [2]): -0.2
rel. logEC50 pcs 4 (vs TPP-5661, hNPRA-CHO k1) (human NPRA [2]): 0.1
rel. logEC50 pcs 5 (vs TPP-5661, hNPRA-CHO k1) (human NPRA [2]): 0.2

B6: TPP-5661 (antibody)
heavy: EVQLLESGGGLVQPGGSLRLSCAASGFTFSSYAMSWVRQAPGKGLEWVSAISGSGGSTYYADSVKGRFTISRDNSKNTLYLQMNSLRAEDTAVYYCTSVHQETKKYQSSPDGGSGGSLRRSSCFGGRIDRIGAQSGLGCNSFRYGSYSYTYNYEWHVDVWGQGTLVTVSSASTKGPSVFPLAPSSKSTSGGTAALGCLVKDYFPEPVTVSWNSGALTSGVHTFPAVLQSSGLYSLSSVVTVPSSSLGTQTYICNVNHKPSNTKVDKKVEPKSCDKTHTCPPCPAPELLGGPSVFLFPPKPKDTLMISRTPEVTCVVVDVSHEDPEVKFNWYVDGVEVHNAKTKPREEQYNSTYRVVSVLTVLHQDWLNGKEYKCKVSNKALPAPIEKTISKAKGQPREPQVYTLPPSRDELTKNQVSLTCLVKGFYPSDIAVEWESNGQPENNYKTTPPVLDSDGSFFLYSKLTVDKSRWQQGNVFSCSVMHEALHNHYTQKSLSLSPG
light: QSVLTQPPSVSGAPGQRVTISCTGSSSNIGAGYDVHWYQQLPGTAPKLLIYGNSNRPSGVPDRFSGSKSGTSASLAITGLQAEDEADYYCQSYDSSLSGVVFGGGTKLTVLGQPKAAPSVTLFPPSSEELQANKATLVCLISDFYPGAVTVAWKADSSPVKAGVETTTPSKQSNNKYAASSYLSLTPEQWKSHRSYSCQVTHEGSTVEKTVAPTECS
activity rcs (human NPRA [1]): 36%
average rel logEC50 (human NPRA [1]): 0 delta logEC50 vs TPP-5661
rel. activity rcs (human NPRA [1]): 0 delta logEC50 vs TPP-5661
rel. logEC50* pcs (human NPRA [1]): 0 delta logEC50 vs TPP-5661
rel. logEC50 ics (human NPRA [1]): 0 delta logEC50 vs TPP-5661
rel. logEC50 pcs 1 (human NPRA [1]): 0 delta logEC50 vs TPP-5661
rel. logEC50 pcs 2 (human NPRA [1]): 0 delta logEC50 vs TPP-5661
rel. logEC50 pcs 3 (human NPRA [1]): 0 delta logEC50 vs TPP-5661
rel. logEC50 pcs 4 (human NPRA [1]): 0 delta logEC50 vs TPP-5661
rel. logEC50 pcs 5 (human NPRA [1]): 0 delta logEC50 vs TPP-5661
rel. logEC50 pcs 6 (human NPRA [1]): 0 delta logEC50 vs TPP-5661
rel. logEC50 pcs 7 (human NPRA [1]): 0 delta logEC50 vs TPP-5661
rel. logEC50 pcs 8 (human NPRA [1]): 0 delta logEC50 vs TPP-5661
rel. logEC50 pcs 9 (human NPRA [1]): 0 delta logEC50 vs TPP-5661

The next lines start with the values.

activity rcs (human NPRA [1]): 94%
average rel logEC50 (human NPRA [1]): -0.2 delta logEC50 vs TPP-5661
rel. activity rcs (human NPRA [1]): 0.1 delta logEC50 vs TPP-5661
rel. logEC50 pcs 2 (human NPRA [1]): -0.6 delta logEC50 vs TPP-5661
rel. logEC50 pcs 3 (human NPRA [1]): 0.2 delta logEC50 vs TPP-5661
rel. logEC50 pcs 4 (human NPRA [1]): -0.3 delta logEC50 vs TPP-5661
B1: TPP-10355 (antibody, human IgG1, lambda)
heavy: not shown
light: QSVLTQPPSVSGAPGQRVTISCTGSSSNIGAGYDVHWYQQLPGTAPKLLIYGNSNRPSGVPDRFSGSKSGTSASLAITGLQAEDEADYYCAAWNPNPNPNPNPNGGSGGSLRRSSCFGGRMDRIGAQSGLGCNSFRYGSNPNPNPNPNPNVFGSGTKVTVLGQPKAAPSVTLFPPSSEELQANKATLVCLISDFYPGAVTVAWKADSSPVKAGVETTTPSKQSNNKYAASSYLSLTPEQWKSHRSYSCQVTHEGSTVEKTVAPTECS

activity rcs (human NPRA [1]): 20%
average rel logEC50 (human NPRA [1]): -0.1 delta logEC50 vs TPP-5661
rel. activity rcs (human NPRA [1]): -0.1 delta logEC50 vs TPP-5661
rel. logEC50 pcs 5 (human NPRA [1]): -0.1 delta logEC50 vs TPP-5661
B2: TPP-10361 (antibody, human IgG1, lambda)
heavy: not shown
light: QSVLTQPPSVSGAPGQRVTISCTGSSSNIGAGYDVHWYQQLPGTAPKLLIYGSGSGSGSGSGSPDGGSGGSLRRSSCFGGRMDRIGAQSGLGCNSFRYGSYGSGGSGSGSGNRPSGVPDRFSGSKSGTSASLAITGLQAEDEADYYCQSYDSSLSGVVFGGGTKLTVLGQPKAAPSVTLFPPSSEELQANKATLVCLISDFYPGAVTVAWKADSSPVKAGVETTTPSKQSNNKYAASSYLSLTPEQWKSHRSYSCQVTHEGSTVEKTVAPTECS

activity rcs (cGMP, hNPRA-CHO k1) (human NPRA [2]): 41%
average rel logEC50 (vs TPP-5661) (human NPRA [2]): -0.3
rel. logEC50* pcs (vs TPP-5661, hNPRA-HEK293) (human NPRA [2]): -0.5 and -0.6 and -0.4
rel. logEC50 pcs 4 (vs TPP-5661, hNPRA-CHO k1) (human NPRA [2]): -0.2
rel. logEC50 pcs 7 (vs TPP-5661, hNPRA-CHO k1) (human NPRA [2]): 0
B3: TPP-10294 (antibody, human IgG1, lambda)
heavy: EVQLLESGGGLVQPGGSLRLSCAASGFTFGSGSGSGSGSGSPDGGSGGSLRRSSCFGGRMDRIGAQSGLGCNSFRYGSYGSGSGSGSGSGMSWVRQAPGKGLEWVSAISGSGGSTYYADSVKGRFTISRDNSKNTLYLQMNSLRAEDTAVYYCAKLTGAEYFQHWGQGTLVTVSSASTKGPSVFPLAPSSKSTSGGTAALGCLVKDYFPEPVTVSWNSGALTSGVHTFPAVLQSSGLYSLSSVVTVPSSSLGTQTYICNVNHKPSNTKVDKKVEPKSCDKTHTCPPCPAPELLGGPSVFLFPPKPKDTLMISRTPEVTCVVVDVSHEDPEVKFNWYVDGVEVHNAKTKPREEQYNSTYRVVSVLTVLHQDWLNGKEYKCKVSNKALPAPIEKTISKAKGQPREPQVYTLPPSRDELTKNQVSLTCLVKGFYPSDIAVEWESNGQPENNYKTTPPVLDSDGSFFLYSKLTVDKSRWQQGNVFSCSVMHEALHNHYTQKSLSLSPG
light: QSVLTQPPSVSGAPGQRVTISCTGSSSNIGAGYDVHWYQQLPGTAPKLLIYGNSNRPSGVPDRFSGSKSGTSASLAITGLQAEDEADYYCQSYDSSLSGVVFGGGTKLTVLGQPKAAPSVTLFPPSSEELQANKATLVCLISDFYPGAVTVAWKADSSPVKAGVETTTPSKQSNNKYAASSYLSLTPEQWKSHRSYSCQVTHEGSTVEKTVAPTECS

activity rcs (cGMP, hNPRA-CHO k1) (human NPRA [2]): 83%
average rel logEC50 (vs TPP-5661) (human NPRA [2]): -0.8
rel. activity rcs (delta logEC50 vs TPP-5661, hNPRA-CHO k1) (human NPRA [2]): -0.8
rel. logEC50 pcs 5 (vs TPP-5661, hNPRA-CHO k1) (human NPRA [2]): -0.8
B7: TPP-10283 (antibody, human IgG1, lambda)
heavy: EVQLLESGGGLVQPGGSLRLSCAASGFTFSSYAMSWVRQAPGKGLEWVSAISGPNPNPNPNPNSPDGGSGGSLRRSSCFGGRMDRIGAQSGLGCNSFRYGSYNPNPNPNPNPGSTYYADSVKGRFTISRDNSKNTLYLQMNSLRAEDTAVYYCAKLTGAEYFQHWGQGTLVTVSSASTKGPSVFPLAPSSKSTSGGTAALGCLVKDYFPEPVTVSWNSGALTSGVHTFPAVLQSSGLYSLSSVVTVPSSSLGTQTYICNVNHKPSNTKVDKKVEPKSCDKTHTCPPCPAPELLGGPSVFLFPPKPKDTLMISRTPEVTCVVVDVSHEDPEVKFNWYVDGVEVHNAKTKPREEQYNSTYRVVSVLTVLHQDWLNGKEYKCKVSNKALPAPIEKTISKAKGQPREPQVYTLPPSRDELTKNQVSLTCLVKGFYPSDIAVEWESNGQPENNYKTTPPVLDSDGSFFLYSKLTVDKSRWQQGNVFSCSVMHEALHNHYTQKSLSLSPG
light: QSVLTQPPSVSGAPGQRVTISCTGSSSNIGAGYDVHWYQQLPGTAPKLLIYGNSNRPSGVPDRFSGSKSGTSASLAITGLQAEDEADYYCQSYDSSLSGVVFGGGTKLTVLGQPKAAPSVTLFPPSSEELQANKATLVCLISDFYPGAVTVAWKADSSPVKAGVETTTPSKQSNNKYAASSYLSLTPEQWKSHRSYSCQVTHEGSTVEKTVAPTECS

Reference: patent publication US20250361282A1 (Bayer, published 2025)
